Source: article PMC13381548

Test system: NX4-NS20-NX1 (X-NS20-X) (designed (from TALE PthXo1))
Experiment: BLI
Details: BLI: 25 mM Tris (pH 7 for NS20, pH 8 for NS14), 150 mM NaCl, 10 mM MgCl2, 0.5% BSA, 0.5% Tween-20, 25 C, EMSA: 1% agarose, 1x TAE, 110 V

Sequence | Kd (10 mM MgCl2, stated weak interactions, Kd > ~700 nM) [µM] | Kd [µM]
AAAAAAATCAGACCGACATCTAATCCGCAACGA (double strand) [X-NS20-X random] | > 0.7 | –
AAAAAAATCTAGCAACCTCAAACAGACACCAGA (double strand) [X-NS20-X target] | – | 0.045
